T1: biotinylated IL-22 with an N-terminal His/FLAG tag (bio.IL-22H/F) (human, UniProt Q9GZX6 34-179, biotinylated (site not stated))
T1 construct: not shown: N-terminal His/FLAG tag
T1 sequence: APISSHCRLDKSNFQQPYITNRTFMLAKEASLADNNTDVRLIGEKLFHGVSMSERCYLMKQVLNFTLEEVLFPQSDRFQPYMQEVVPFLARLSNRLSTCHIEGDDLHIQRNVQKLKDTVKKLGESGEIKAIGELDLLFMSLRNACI

T2: IL-26 (human, UniProt Q9NPH9)
T2 construct: coated on the ELISA plate at 1 µg/ml; also called human IL-26
T2 sequence (cytokine, looked up): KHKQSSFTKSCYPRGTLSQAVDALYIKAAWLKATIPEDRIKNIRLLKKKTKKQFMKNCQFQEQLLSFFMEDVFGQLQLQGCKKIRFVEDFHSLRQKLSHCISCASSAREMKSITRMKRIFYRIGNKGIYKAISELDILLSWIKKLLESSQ

T3: human IL-22 (human, UniProt Q9GZX6 34-179)
T3 sequence: T1 sequence

B1: GIL45 scFv (non-germlined parent) (scFv)
scFv: QMQLVQSGGGVVQPGRSLRLSCAASGFTFSNYGMYWVRQAPGKGLEWVAHIWYDGSNEKYADSVKGRMTVSRDNSRNTLYLQMNSLRAEDTAVYYCATEQHWITAFDIWGKGTLVTVSSGGGGSGAGGSGGGGSQSVLTQPASVSGSPGQSITISCTGTSSDVGGYNYVSWYQQHPGKAPKLMIYEGSKRPSGVSNRFSGSKSGNTASLTISGLQAEDEADYYCSSYTTRSTRVFGGGTKLTVLGAAAH
B2: 354A08 germlined IgG (antibody, V domains shown)
VH: QVQLVQSGAEVKKPGASVKVSCKASGYTFTDYYMHWVRQAPGQGLEWVGWINPYTGGAFYAQKFRGRVTMTRDTSISTAYMELSRLRSDDTAVYYCAREPERFGDSTGQVWGRGTLVTVSS
VL: QAVLTQPPSVSGAPGQRVTISCTGSSSNIGAGYGVHWYQQLPGTAPKLLIYGNSNRPSGVPDRFSGSKSGTSASLAITGLQAEDEADYYCYHWDKEQSGYVFGGGTQLTVLG
B3: 356A11 germlined IgG (antibody, V domains shown)
VH: B2 VH with D31N, G57S, R102K, G104D, D105S, S106D, T107D, G108S, Q109D
VL: B2 VL with N53D, Y91Q, H92S, W93Y, K95N, E96S, Q97L
B4: 062A09 (antibody, V domains shown)
VH: QVQLVQSGAEVKKPGASVKVSCKASGYTFTSYGISWVRQAPGQGLEWMGWVSAYTGNTNYAQKFQGRVTMTTDTSTSTAYMELRSLRSDDTAVYYCARDRGYYDAFDIWGQGTLVTVSS
VL: DIQMTQSPSTLSASVGDRVTITCRASEGIYHWLAWYQQKPGKAPKLLIYKASSLASGVPSRFSGSGSGTEFTLTISSLQPDDFATYYCQQMGEYNATFGGGTKVEIKR
notes: The list MOLECULES holds only the non-germlined 062A09 IgG; also called 062A09 germlined IgG
B5: 166B06 germlined IgG (antibody, V domains shown)
VH: QVQLVQSGAEVKKPGASVKVSCKASGYTFSDYYIHWVRQAPGQGLEWMGWVNPDTGGTRYAQKFQGRVTMTRDMSISTAYMELSRLRSDDTAVYYCARDLTGFDPFDIWGQGTLVTVSS
VL: SSVLTQPPSVSVAPGKTARITCGGNNFRNKRVHWYQQKPGQAPVLVIYYDSDRPSGIPERFSGSRSGNTATLTISRVEAGDEADYYCQVWDLFNDNGVFGGGTKLTVLG
B6: 376B10 IgG (non-germlined) (antibody, V domains shown)
VH: EVQLVQSGAEVKKPGASVKVSCQASGYTFSDYYIHWVRQTPGQGFEWMGWVNPDTGGTRYAQKFQGWVTMTRDMSNTTAYMELPGLRDDDTAVYYCARDLTGYDQYTAWGQGTLVTVSS
VL: QSVLTQPPSVSVAPGKTATITCGGNNFRNKRVHWYQQRPGQAPVLVIYYDSDRPSGIPERFSGSRSGNTATLTISRVEAGDEADFYCSTFDPFTDRPLFGGGTKLTVLG
notes: IgG
B7: 375G06 IgG (non-germlined) (antibody, V domains shown)
VH: B6 VH with G85R, Q105Y, T107D, A108R
VL: QSVLTQPPSMSVAPGKTATITCGGNNFRNKRVHWYQQRPGQAPVLVIYYDSDRPSGIPERFSGSRSGNTATLTISRVEAGDEADFYCQVWDFLADEAMFGGGTKLTVL
notes: IgG
B8: 166G05 germlined IgG (antibody, V domains shown)
VH: B5 VH
VL: B5 VL with L92F, F93L, N94T, N96S, V98S
B9: 367D04 IgG (non-germlined) (antibody, V domains shown)
VH: EVQLVESGGGVVRPGGSLRLSCAASGFTFDDYGMNWVRQAPGKGLEWVSGVNWNGGTRDYAASVKGRFTISRDNAKNSLYLQMNSLRAEDTALYYCARGWYSGSPWSLGHWGRGTLVTVSS
VL: QAVLTQPSSVSGSPGQSVTISCTGASGDVGAYNFVSWYQQHPGKTPKLIIYDVNKRPSGVSNRFSGSKSGNTASLTISRLQAEDESDYYCSSYTSRYTTEFGGGTKVTVLG
notes: IgG
B10: 087B03 germlined IgG (antibody, V domains shown)
VH: B9 VH with Y95H, S104A, P105A, S107N, L108M, H110Y
VL: QAALTQPASVSGSPGQSITISCTGASGDVGAYNFVSWYQQHPGKAPKLIIYDVNKRPSGVSNRFSGSKSGNTASLTISGLQAEDEADYYCSSYTSTFSVVFGGGTKLTVLG
B11: 062A09 IgG (non-germlined) (antibody, V domains shown)
VH: B4 VH with Q6E, S85G
VL: B4 VL with V15I, V58A, S67F, E70D, F98I, V104L
B12: 166B06 IgG (non-germlined) (antibody, V domains shown)
VH: B6 VH with G85R, Y103F, Q105P, Y106F, T107D, A108I
VL: B5 VL with S1Q, R19T, K38R, Y85F
B13: 166G05 IgG (non-germlined) (antibody, V domains shown)
VH: B6 VH with G85R, Y103F, Q105P, Y106F, T107D, A108I
VL: B6 VL with S88Q, T89V, F90W, P92F, F93L, R96S, P97G, L98S
B14: GIL68 IgG (non-germlined parent) (antibody, V domains shown)
VH: B6 VH with G85R, Y103F, Q105P, Y106F, T107D, A108I
VL: B6 VL with S88Q, T89V, F90W, P92S, F93S
notes: Human IgG4 heavy chain constant domain; Cryptate labeled in the HTRF assay; also called cryptate labeled GIL68 IgG

Changes are numbered by the printed parent chain.

One test has as its target T1, biotinylated IL-22 with an N-terminal …. Put plainly: IL-22 receptor complex inhibition assay (bio.IL-22H/F binding to IL-22 receptor complex, DELFIA), scFv. As for the experimental part: Both the IL-22/IL-22R binding assay (described above) and the IL-22/IL-22 receptor complex assay (described below) were used. ScFv concentrations were titrated in order to establish the clone potencies as measured by assay IC₅₀ values. These were determined using GraphPad Prism software and four-parameter logistic equation curve fitting.
(§1) Microtiter plates were coated with an IL-22 receptor complex antibody (1 μg/ml in PBS), and incubated for 1.5 hours at room temperature. Plates were washed three times in PBST, and blocked for 1 hour at room temperature with 2% MPBS. After a further 3 washes, diluted cell conditioned medium containing an IL-22 receptor complex was added and incubated overnight at 4° C. Crude scFv supernatants were prepared as described above. The following day, 25 μl of diluted scFv sample and 25 μl of bio.IL-22H/F (6 ng/ml) were added to the washed plates, and incubated for 1.5 hours at room temperature. Plates were washed 3 times in PBST, then binding of bio.IL-22H/F to the IL-22 receptor complex was detected with Europium-Streptavidin and the DELFIA® reagent kit (PerkinElmer). Time Resolved Fluorescence was measured using a Victor 2™ Plate Reader (Perkin Elmer).
One may read the IC50 as the concentration at which inhibition is half-maximal. Higher therefore signals weaker potency in that assay. As for B1, the IC50 stood at 358 nM. This lies in the sub-micromolar range.

The target of another test is T2, IL-26. In words: ELISA: plate coated with 1 µg/ml human IL-26, IgG at 1 µg/ml, HRP anti-human IgG, A450. As for the experimental part: (§2) Cross species reactivity of germlined and non-germlined optimized antibodies were determined as follows: ELISA plates (Costar, Cat. #3590) were coated overnight with 1 μg/ml of rat, mouse, or human IL-22 or human IL-26 in PBS buffer. Plates were washed with PBST buffer (0.05% Tween20 in PBS) 3 times, then blocked with 1% BSA (Sigma A8918)/PBST for 1 hr at RT. Antibodies were added at 1 μg/ml, incubated 1 hr at 25° C. […] The plates were incubated for 1 hour at 25° C., then washed with PBST, and developed with TMB (KPL, Cat. #50-76-04). Reaction was stopped with 0.18 M H₂S0₄. Plates were read at OD 450 nm.
(In general: In an ELISA, binding on a coated surface is turned into a signal by an enzyme label.)
For B2, the binding result is “no binding (tested: 1 µg/ml (single concentration))”.

As to B3, the binding result is reported as “no binding (tested: 1 µg/ml (single concentration))”.

On to B4, for which the binding result is reported as “no binding (tested: 1 µg/ml (single concentration))”.

For the molecule B5, the binding result is on record as “no binding (tested: 1 µg/ml (single concentration))”.

On to B6, for which the binding result was “no binding (tested: 1 µg/ml (single concentration))”.

Regarding B7, the binding result was “no binding (tested: 1 µg/ml (single concentration))”.

As for B8, the binding result is “no binding (tested: 1 µg/ml (single concentration))”.

Take B9: the binding result was “no binding (tested: 1 µg/ml (single concentration))”.

On to B10, for which the binding result is on record as “no binding (tested: 1 µg/ml (single concentration))”.

Another test has as its target T3, human IL-22. Put plainly: cell-based or functional assay.
B2: the “IC50 of IgG in BaF3-IL-22 proliferation assay” value (shortened to “IC50 of IgG”) stood at 0.079 nM.

Consider B3, for which the “IC50 of IgG” value turned out to be 0.053 nM.

In the case of B11, the “IC50 of IgG” value turned out to be 0.083 nM.

As for B12, the “IC50 of IgG” value stood at 0.071 nM.

As for B6, the “IC50 of IgG” value came to 0.119 nM.

As for B13, the “IC50 of IgG” value worked out at 0.097 nM.

For B7, the “IC50 of IgG” value was determined as 0.1 nM.

Take B9: the “IC50 of IgG” value stood at 0.126 nM.

In a further test the target is T1, biotinylated IL-22 with an N-terminal …. In words: IL-22 receptor complex inhibition assay (bio.IL-22H/F binding to IL-22 receptor complex, DELFIA), IgG. As for the experimental part:
Potency of purified IgG was verified in the biochemical IL-22 receptor complex inhibition assay as described below. IgG concentrations were titrated in order to obtain potency values.
as §1
B14 had an IC50 of 2 nM.

For the next test, the target named is T4, BSA (bovine, UniProt P02769).
T4 construct: background wells labelled BSA; also called bovine serum albumin
T4 sequence (P02769 25-607 limits assumed): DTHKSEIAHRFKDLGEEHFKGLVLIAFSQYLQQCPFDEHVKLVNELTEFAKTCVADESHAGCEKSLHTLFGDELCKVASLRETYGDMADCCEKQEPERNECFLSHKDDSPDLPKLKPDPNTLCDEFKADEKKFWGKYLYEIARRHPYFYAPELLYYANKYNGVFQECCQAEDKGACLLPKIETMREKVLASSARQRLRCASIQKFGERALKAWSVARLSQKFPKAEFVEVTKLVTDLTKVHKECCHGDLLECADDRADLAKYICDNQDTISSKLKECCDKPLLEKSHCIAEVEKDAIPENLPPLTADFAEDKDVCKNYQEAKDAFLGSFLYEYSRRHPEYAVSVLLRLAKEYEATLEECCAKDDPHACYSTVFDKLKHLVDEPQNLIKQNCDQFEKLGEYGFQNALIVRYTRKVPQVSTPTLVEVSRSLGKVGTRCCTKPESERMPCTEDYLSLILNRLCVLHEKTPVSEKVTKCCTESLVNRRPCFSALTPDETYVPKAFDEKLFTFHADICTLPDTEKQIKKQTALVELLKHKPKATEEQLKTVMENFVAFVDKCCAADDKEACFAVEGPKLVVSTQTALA
Put plainly: ELISA: wells labelled BSA, IgG at 1 µg/ml, HRP anti-human IgG, A450. As for the experimental part: as §2
In the case of B2, the binding result was “no binding (tested: 1 µg/ml (single concentration))”.

On to B3, for which the binding result was “no binding (tested: 1 µg/ml (single concentration))”.

Consider B4, for which the binding result is given as “no binding (tested: 1 µg/ml (single concentration))”.

B5: the binding result is listed as “no binding (tested: 1 µg/ml (single concentration))”.

For the molecule B6, the binding result was “no binding (tested: 1 µg/ml (single concentration))”.

For the molecule B7, the binding result is “no binding (tested: 1 µg/ml (single concentration))”.

As for B8, the binding result is recorded as “no binding (tested: 1 µg/ml (single concentration))”.

Take B9: the binding result is given as “no binding (tested: 1 µg/ml (single concentration))”.

For the molecule B10, the binding result is “no binding (tested: 1 µg/ml (single concentration))”.

A further test concerns the target T3, human IL-22. Put plainly: cell-based or functional assay. This is another data set of the same source.
Turning to B2, the “IC50 (pM) of germlined IgG in BaF3-IL-22R proliferation assay” value (from here on “IC50 (pM) of germlined IgG”) was 79 pM.

Turning to B3, the “IC50 (pM) of germlined IgG” value is 53 pM.

Regarding B11, the “IC50 (pM) of non-germlined IgG in BaF3-IL-22R proliferation assay” value (“IC50 (pM) of non-germlined IgG” for short) worked out at 108 pM.

B12: the “IC50 (pM) of non-germlined IgG” value was determined as 109 pM.

As for B5, the “IC50 (pM) of germlined IgG” value came out at 169 pM.

Consider B13, for which the “IC50 (pM) of non-germlined IgG” value worked out at 366 pM.

Turning to B8, the “IC50 (pM) of germlined IgG” value turned out to be 109 pM.

For B10, the “IC50 (pM) of germlined IgG” value is 118 pM.

For the origin of these results see patent US20070243589A1 (Pfizer, published 2007).
